# Measured values taken from paper PMC11481574.
# Several values for one entry are separate records, joined by “and”; a condition that tells them apart may be missing. Identical values can stand only once.
# Target: Vibrio His-FliFG fusion protein with the FliG-G214S mutation (Vibrio alginolyticus)
# Experiment: cryo-EM structure; single-particle cryo-EM of the purified, concentrated MS-ring in buffer with LMNG; grids frozen after blotting at 4°C, 100% humidity; two classes with 35- or 34-fold rotational symmetry
substance,measurement,value
Vibrio His-FliFG fusion protein with the FliG-G214S mutation,stoichiometry N,35 and 34
